Test results taken from patent publication US20130058955A1 (Genentech, published 2013).
“And” between values parts separate entries of the source, which are not always exact repeats. Equal values may be shown once.

B1: 1E3, Fab displayed on phage (Fab, V domains shown)
VH: EVQLVESGGGLVQPGGSLRLSCAASGFTFSNTYISWVRQAPGKGLEWVASITPSSGSTDYADSVKGRFTISADTSKNTAYLQMNSLRAEDTAVYYCARTWLLRWVMDYWGQGTLVTVSS
VL: DIQMTQSPSSLSASVGDRVTITCRASQDVSTAVAWYQQKPGKAPKLLIYSASFLYSGVPSRFSGSGSGTDFTLTISSLQPEDFATYYCQQSYTTPPTFGQGTKVEIK
notes: Fab on M13 phage (heavy chain fused to gpIII, gD tag on light chain); Fab-zip (bivalent) in the first spot ELISA, monovalent afterwards; also called WT; parental 1E3
B2: 1D8.4F5, Fab displayed on phage (Fab, V domains shown)
VH: EVQLVESGGGLVQPGGSLRLSCAASGFTFTDDDIHWVRQAPGKGLEWVAEISPYGGYTDYADSVKGRFTISADTSKNTAYLQMNSLRAEDTAVYYCAREAGSRLLSVMDYWGQGTLVTVSS
VL: DIQMTQSPSSLSASVGDRVTITCRASQDVSTAVAWYQQKPGKAPKLLIYSASFLYSGVPSRFSGSGSGTDFTLTISSLQPEDFATYYCQQSFTTPPTFGQGTKVEIK
notes: Fab on M13 phage

Assays:
[1] = target: T1, linear diubiquitin (Boston Biochem) (human, UniProt P0CG48 1-152); assay: phage IC50 competition ELISA with soluble linear diubiquitin
T1 construct: Bought product
Experimental: (§1) An initial titer ELISA was done to determine the amount of phage at which a signal of OD₄₅₀=0.5 would be achieved. […] The coated plates were blocked with 200 μL/well of 2.5% milk in PBST for one hour at 25° C. with shaking. Twelve two-fold serial dilutions of the phage were made in 2.5% milk in PBST from OD₂₆₈=4.0 to OD₂₆₈=0.002. After one hour, the blocking buffer was dumped off of the plate and 100 μL/well of each phage dilution was added and incubated at 25° C. for 15 minutes with shaking. The plate was then washed six times with PBST using a plate washer. A 1:5000 dilution of an anti-M13 phage-HRP-conjugated secondary antibody (GE Healthcare) in PBST was used for detection of phage binding. 100 μL/well of the secondary dilution was added and the plate was incubated at 25° C. for 30 minutes with shaking. The plate was then washed 12 times with PBST using a plate washer and twice with PBS manually. Bound secondary antibody was detected using a TMB substrate (KPL) followed by quenching with an equal volume of 1 M phosphoric acid.

[2] = target: T1, linear diubiquitin (Boston Biochem); assay: phage IC50 competition ELISA: Fab-phage with titrated soluble linear diubiquitin, unbound phage caught on coated linear diubiquitin; clone 1E3
Experimental: as §1

[3] = target: T1, linear diubiquitin (Boston Biochem); assay: phage IC50 competition ELISA with soluble linear diubiquitin; remark: listed apart in the source

Binder	IC50 [1]	IC50 [2] [nM]	IC50 [3] [nM]
B1	29 nM and 24 nM and 25 nM	80	
B2			~2000
